± gives the half width of the 95% confidence interval.
Assay: folding stability dG unfold (combined trypsin and chymotrypsin); higher = more stable
Experimental: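 Folding stability of de novo designed mini-proteins (<80 aa, no Cys; designed by TrROS, TrMRF, ProteinMPNN and the joint model) was measured by cDNA display proteolysis with trypsin and chymotrypsin. Each protease was used at 11 concentrations in a threefold dilution series plus a no-protease condition. K50 was inferred by Bayesian fitting of sequencing counts, and dG unfold was derived against a sequence-predicted unfolded-state K50 (Tsuboyama et al. method). Sequences shown include variable-length N-terminal GS-type padding (SAGGSAGG...) inside a display construct carrying a PA tag. Rows were kept only if the AF2 dimer inter-PAE was >15, to exclude likely homo-oligomers.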

Question: For “SAGPLKPGKTIEVPMEFTSPSDIVDELEKLPGIKDIEPTGIEPEPNPDGPPRIRVPFTFKIPKDGEPLSAGG [r19_221_TrROS]”, which “folding stability dG unfold” value is on record?
Answer: The value was less than -4.18 kJ/mol.

Question: With “SAGPNFQIKKVEHKGGKIEIPIRLPNGRPFTARIKVEKRPDPDGNDRPRTKIEISEDALKEYIPPDLIKSAG [r5_462_TrROS]” as the sequence, how does the “folding stability dG unfold” value read?
Answer: Its value is less than -4.18 kJ/mol.

Question: Which “folding stability dG unfold” value does the source give for “SAGPNPGEPLTVVTETSTEKVPTSSGRAVPVTTSTASNGTVIEKFPDGKVLVFEPGKGPENKTVLPEVSAGG [r19_199_JUSTAS]” here?
Answer: Its value is less than -4.18 kJ/mol.

Question: With “SAGSEIYEAAKAGKKATVPVETTLTEVTEESVTPLGGPTLKAREVARTTFNAKLTKFDPKTGKITTDLPSAG [r5_5_JUSTAS]” as the sequence, how does the “folding stability dG unfold” value read?
Answer: The value was less than -4.18 kJ/mol.

Question: With “SAGSVTATITLPSGETVTVDVAPDEERILTTPEGRLLRLTDVRPGAVAFTEGENFVPDEDGNLVPLSLLSAG [r5_417_JUSTAS]” as the sequence, how does the “folding stability dG unfold” value read?
Answer: Its value is less than -4.18 kJ/mol.

Question: Which “folding stability dG unfold” value does the source give for “SAGVPVDLHHDPKGVELATSTSYTPSGEPVGSSSSTHTVPGTGTPVSVYSPVYDDGAGLITRTYLAKLSAGG [r19_185_JUSTAS]” here?
Answer: The value was less than -4.18 kJ/mol.

Question: For “SAGWKIKIYPPNGQPQEIPIEDAKEIAEELAEQGNVQITPDGDIYIPFPMKDPEDGKPHQMYIQIERDKSAG [r5_243_TrROS]”, which “folding stability dG unfold” value is on record?
Answer: Its value is less than -4.18 kJ/mol.

Question: With “SAKITITLPNGKKIEIELPEGYEIVEVTFDKETGVITIKVKNKETGKEYKITLTFNEDGSLTISIEEVDSAG [r14_311_TrROS_Hall]” as the sequence, how does the “folding stability dG unfold” value read?
Answer: The value was greater than 25.1 kJ/mol.

Question: Which “folding stability dG unfold” value does the source give for “SAMDAKELAEEIADEFAPKFPNIKPKKVTVEPTGDHYEGNIEWEMPNGRPMRVEVTVEKDGNIEDIEFHSAG [r14_719_TrROS]” here?
Answer: Its value is less than -4.18 kJ/mol.

Question: For “SAMPLSELEFVEERVFPDPPVRISVYRLPSPGVWVVPVLEPGTGRPRLVELEAADGVLDEEEVRAAVLESAG [r14_948_JUSTAS]”, which “folding stability dG unfold” value is on record?
Answer: Its value is less than -4.18 kJ/mol.

Question: Which “folding stability dG unfold” value does the source give for “SAMSPELEELLAQLKAAAEATTDVSVFATDAAGNLRSIGPVTVTGPATSLAELRPELAARPVARVELVGSAG [r14_318_JUSTAS]” here?
Answer: Its value is less than -4.18 kJ/mol.

Question: With “SAPEVSVEEEEEEITDPVTGEKTTVYKITTKITLPDPNSSKKVTLTKPVIVEKTKSGTKVTEKPVFLLLSAG [r14_339_JUSTAS]” as the sequence, how does the “folding stability dG unfold” value read?
Answer: Its value is less than -4.18 kJ/mol.

Question: Which “folding stability dG unfold” value does the source give for “SASSTLTFTLPRYTVNKVYDKEGKPVPVEITPVPTLEVTATTLPDGTVVVTIGDETRTYPPGVSPEELLSAG [r14_909_JUSTAS]” here?
Answer: The value was less than -4.18 kJ/mol.

Question: Which “folding stability dG unfold” value does the source give for “SASVVDLETDGSMSVEEVVERFKKENPNVKEVKVTTEALPDEPKYRITLTITEDKGKTEENLKKTKELKSAG [r14_645_JUSTAS]” here?
Answer: The value was less than -4.18 kJ/mol.

Question: Which “folding stability dG unfold” value does the source give for “SATTTTETLPDGGVLTTTTLPDGSPATGLIDPANGAPFTATHPNGLRTVWSQSPSGKVTTLSTTNVPPSSAG [r14_877_JUSTAS]” here?
Answer: Its value is less than -4.18 kJ/mol.

Question: For “SDEVSRPVDVRYYITLTEPPTSRPRRGPTDELEVESERPVTVTEMPAGQEEAVRAELEPRGVAVSVTPVVSA [r9_1209_JUSTAS]”, which “folding stability dG unfold” value is on record?
Answer: The value was less than -4.18 kJ/mol.

Question: Which “folding stability dG unfold” value does the source give for “SFKLPEGEEREFRLPDVPIEIEVDDGPGMIKINIYPPENPGKPVFEHEVPPGEIKPIEIPPELRDAMKKQSA [r9_1051_TrROS]” here?
Answer: The value was less than -4.18 kJ/mol.

Question: Which “folding stability dG unfold” value does the source give for “SIEITFRHDNYRVPVKIDPDDPKIKIEVYPDPENGEMQPLTEEDMENFAQEIADELREQRKQQRKEGKPPSA [r9_368_TrROS]” here?
Answer: The value was less than -4.18 kJ/mol.

Question: For “SKSRPIEVEFRMPYPNGGPMRMRATVLINPDNGKIGIPMRMETPGKEREYPLPPSMMNNLAKTVLDKLGLSA [r9_1136_TrROS]”, which “folding stability dG unfold” value is on record?
Answer: Its value is -3.3 ± 3.39 kJ/mol.

Question: With “SMTVITAEPNLPPEKKAAVEAVRERVKANPDKPMDADEIKEFIKEEFGDPNFTILKVTIIPKAPPVVALSSA [r9_620_JUSTAS]” as the sequence, how does the “folding stability dG unfold” value read?
Answer: Its value is less than -4.18 kJ/mol.

Question: With “SNMPIFVRIEHNDGKEVEIPIKGSREQLKDNIQEEIQEYAQENGHKPRSIKVEVYDFGNNQEQTRTIPVKSA [r9_1193_TrROS]” as the sequence, how does the “folding stability dG unfold” value read?
Answer: The value was less than -4.18 kJ/mol.

Question: Which “folding stability dG unfold” value does the source give for “SNTIMIMANVPPGPVRIKIEPKNGRRYEMPIPPGEPVMFHIPIPPGLPPGNKWKIEVENPDNGKEQEKDFSA [r9_275_TrROS]” here?
Answer: The value was less than -4.18 kJ/mol.

Question: For “SPNVRPYNFKIRDPNKEIEVPVWQPPDGPPMVNIKFKDPGKEVEIPFPMDDPEELLEDFAPDGYKIELTWSA [r9_384_TrROS]”, which “folding stability dG unfold” value is on record?
Answer: Its value is less than -4.18 kJ/mol.

Question: For “SPTLPFPFPDGHPYMIHLNPEKNEIHIHNPESGRPYRIKVPGGKERRIPAGADSLDELKDLPPLKIEPMPSA [r9_205_TrROS]”, which “folding stability dG unfold” value is on record?
Answer: Its value is less than -4.18 kJ/mol.

Question: For “SSAEEVARARFEAAGWDWRPLARDPVKRTVRFEVRPPDRPPRLYEVVVDPSRDTVNLEEDPATGRVVVPGSA [r9_1119_JUSTAS]”, which “folding stability dG unfold” value is on record?
Answer: Its value is less than -4.18 kJ/mol.

Question: Which “folding stability dG unfold” value does the source give for “SSDDKEEQKKRQKAQAKPKPKMEPVWVPIEVRDPDNGRPFEIPVRMYRTPNGKIEPLPEEELKDWAKDLFSA [r9_1056_TrROS]” here?
Answer: Its value is less than -4.18 kJ/mol.

Question: With “SSVKIEEKPLPDGTILVTITTPPENPEEVAEKVKEEVKAPVTVTSVEEVELEEGEKPLKVVKITIEVDKASA [r9_431_JUSTAS]” as the sequence, how does the “folding stability dG unfold” value read?
Answer: The value was less than -4.18 kJ/mol.

Question: Which “folding stability dG unfold” value does the source give for “SSVNWKVLETKEEPETVVTLLENPENPELIVEVPVKRFEDPDSERREVTKTVWLPATGETLETEPAVIPLSA [r9_18_JUSTAS]” here?
Answer: Its value is less than -4.18 kJ/mol.

Question: With “STLENIEYIKLPKNKTLPLPGGETISPDEEIAIDLDKKKYINKEELEELKKKIEEELEKKKPKENPKNLISA [r9_517_JUSTAS]” as the sequence, how does the “folding stability dG unfold” value read?
Answer: Its value is less than -4.18 kJ/mol.

Question: Which “folding stability dG unfold” value does the source give for “SYPRDPSGKITAKITITRDPDGIYRAEIDVVDKDNKPLARASAPYENPYPGVARLKEEAEALAEELEKKKSA [r9_739_TrMRF]” here?
Answer: Its value is less than -4.18 kJ/mol.
